Experimental findings from patent US20070184522A1, “Cell death modulation via antagonists of Fasl and Fas activation” (University of Pittsburgh of the Commonwealth System of …, priority 2004, published 2007) are described below.

“Also recorded” adds a separate entry of the source.

For the experiment, the system named is Fas self-assembly in Hepa 1-6 cells. Nature of the experiment: FRET assay of CFP-Fas/YFP-Fas in transfected Hepa 1-6 cells. As to conditions: Hepa 1-6 cells, CFP-Fas and YFP-Fas, FasL with AlphaMet. It is filed as cell-based. The protocol:
FIG. 3a presents data collected from Jurkat cells (1×10^6) treated with 2 μg/ml of Fas Ligand with or without AlphaMet for 30 minutes on ice. Cells were washed with PBS twice and then incubated with 2 mM of DTSSP in PBS for 30 minutes. The crosslinking process was stopped by 20 mM of Tris (pH 7.5) for another 30 minutes. Cells were spun down and washed with PBS twice and lyzed in RIPA buffer. Cell lysates were subjected to SDS-PAGE under non-reducing or reducing conditions (FIG. 3b) and Western blot analysis using the mouse monoclonal antibody against human Fas. FIG. 3c depicts the quantification of the data in FIG. 3a by densitometry. The data are the mean and SE from three different independent crosslinking and Western blot experiments. […] Frame A: Acceptor CFP-Fas image; Frame B: Acceptor pre-bleach CFP-Fas image; Frame C: Acceptor post-bleach image. Frame D: Donor YFP-Fas image; Frame E: Donor pre-bleach image; Frame F: Donor pre-bleach image. […] Cells were fixed and analyzed by fluorescence microscopy. […]
FRET assay. […] Fret efficiency (E) was calculated as FRETeff=(Dpost−Dpre)/Dpost (Dpost and Dpre are the mean emission intensity […] YFP bleaching).
Fluorescence protein tagged Fas molecules and Hepa 1-6 cells were used for these experiments. […] In these experiments the percent of Fas capping was also determined.

Fas self-assembly in Hepa 1-6 cells, sequence (P25445 26-190 limits assumed): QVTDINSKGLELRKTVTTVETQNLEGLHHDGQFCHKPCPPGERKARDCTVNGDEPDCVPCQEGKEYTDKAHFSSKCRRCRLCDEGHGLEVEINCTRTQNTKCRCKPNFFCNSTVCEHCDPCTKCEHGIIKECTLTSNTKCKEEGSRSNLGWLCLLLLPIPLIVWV

B1: alpha subunit of Met (AlphaMet), amino acid residues 1 to 306, His-tagged (receptor, mouse)
chain: MKAPTVLAPGILVLLLSLVQRSHGECKEALVKSEMNVNMKYQLPNFTAETPIQNVVLHGHHIYLGATNYIYVLNDKDLQKVSEFKTGPVLEHPDCLPCRDCSSKANSSGGVWKDNINMALLVDTYYDDQLISCGSVNRGTCQRHVLPPDNSADIQSEVHCMFSPEEESGQCPDCVVSALGAKVLLSEKDRFINFFVGNTINSSYPPGYSLHSISVRRLKETQDGFKFLTDQSYIDVLPEFLDSYPIKYIHAFESNHFIYFLTVQKETLDAQTFHTRIIRFCSVDSGLHSYMEMPLECILTEKRRKRHHHHHH
In the case of B1, the “FasL-induced FRET” value is reported as “no significant FRET could be detected; also recorded: inhibited the FasL-induced FRET phenomenon”.
